Data set [1] concerns classical complement pathway. The data set is described as follows: In vitro haemolysis assay (inhibition of classical complement pathway). It is filed as cell-based, human. Particulars: Table 3; human serum, sensitized sheep red blood cells; read-out: IC50[nM], in vitro analysis of inhibition of hemolysis. The procedure, abridged: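 Serially diluted compound (9 points) was preincubated 15 min at room temperature with diluted human serum, titrated per batch to give 70-90% maximal haemolysis, in Tris/casein buffer pH 7.4 with Mg2+/Ca2+. Antibody-sensitized sheep erythrocytes were then added for 30 min at 37° C, and the reaction was stopped with EDTA. Haemolysis was read at A405, with IC50 from 4PL fit.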

Data set [2] is described as follows: Solubility test at 10 mg/mL (visual inspection and light scattering). It is filed as physicochemical.
Data set [3] deals with Human C3 (human, UniProt P01024 23-1663). Kind of data set: cell-based or functional assay.

Starred links: 1 amine or outer side, 2 acyl side, 3 side chain; linkers in the order of their positions; H or OH if unused. Positions of bridges follow the written chain, without caps; N, C: chain ends. Non-standard residues stand in square brackets, D forms with d. Residues, ends and D or L forms follow the SMILES beside them. Groups on a side chain read outwards from the residue. *: point of attachment. C20 diacid = O=C(O)CCCCCCCCCCCCCCCCCCC(=O)*; Trp(1-Me) = Cn1cc(C[C@H](N)C(=O)O)c2ccccc21; C18 diacid = O=C(O)CCCCCCCCCCCCCCCCC(=O)*; C16 diacid = O=C(O)CCCCCCCCCCCCCCC(=O)*; γGlu = O=C(O)[C@H](CCC(=O)[*:2])N[*:1]; AEEA = NCCOCCOCC(=O)O; Sar = CNCC(=O)O

Sequence of Human C3 (P01024 23-1663 limits assumed): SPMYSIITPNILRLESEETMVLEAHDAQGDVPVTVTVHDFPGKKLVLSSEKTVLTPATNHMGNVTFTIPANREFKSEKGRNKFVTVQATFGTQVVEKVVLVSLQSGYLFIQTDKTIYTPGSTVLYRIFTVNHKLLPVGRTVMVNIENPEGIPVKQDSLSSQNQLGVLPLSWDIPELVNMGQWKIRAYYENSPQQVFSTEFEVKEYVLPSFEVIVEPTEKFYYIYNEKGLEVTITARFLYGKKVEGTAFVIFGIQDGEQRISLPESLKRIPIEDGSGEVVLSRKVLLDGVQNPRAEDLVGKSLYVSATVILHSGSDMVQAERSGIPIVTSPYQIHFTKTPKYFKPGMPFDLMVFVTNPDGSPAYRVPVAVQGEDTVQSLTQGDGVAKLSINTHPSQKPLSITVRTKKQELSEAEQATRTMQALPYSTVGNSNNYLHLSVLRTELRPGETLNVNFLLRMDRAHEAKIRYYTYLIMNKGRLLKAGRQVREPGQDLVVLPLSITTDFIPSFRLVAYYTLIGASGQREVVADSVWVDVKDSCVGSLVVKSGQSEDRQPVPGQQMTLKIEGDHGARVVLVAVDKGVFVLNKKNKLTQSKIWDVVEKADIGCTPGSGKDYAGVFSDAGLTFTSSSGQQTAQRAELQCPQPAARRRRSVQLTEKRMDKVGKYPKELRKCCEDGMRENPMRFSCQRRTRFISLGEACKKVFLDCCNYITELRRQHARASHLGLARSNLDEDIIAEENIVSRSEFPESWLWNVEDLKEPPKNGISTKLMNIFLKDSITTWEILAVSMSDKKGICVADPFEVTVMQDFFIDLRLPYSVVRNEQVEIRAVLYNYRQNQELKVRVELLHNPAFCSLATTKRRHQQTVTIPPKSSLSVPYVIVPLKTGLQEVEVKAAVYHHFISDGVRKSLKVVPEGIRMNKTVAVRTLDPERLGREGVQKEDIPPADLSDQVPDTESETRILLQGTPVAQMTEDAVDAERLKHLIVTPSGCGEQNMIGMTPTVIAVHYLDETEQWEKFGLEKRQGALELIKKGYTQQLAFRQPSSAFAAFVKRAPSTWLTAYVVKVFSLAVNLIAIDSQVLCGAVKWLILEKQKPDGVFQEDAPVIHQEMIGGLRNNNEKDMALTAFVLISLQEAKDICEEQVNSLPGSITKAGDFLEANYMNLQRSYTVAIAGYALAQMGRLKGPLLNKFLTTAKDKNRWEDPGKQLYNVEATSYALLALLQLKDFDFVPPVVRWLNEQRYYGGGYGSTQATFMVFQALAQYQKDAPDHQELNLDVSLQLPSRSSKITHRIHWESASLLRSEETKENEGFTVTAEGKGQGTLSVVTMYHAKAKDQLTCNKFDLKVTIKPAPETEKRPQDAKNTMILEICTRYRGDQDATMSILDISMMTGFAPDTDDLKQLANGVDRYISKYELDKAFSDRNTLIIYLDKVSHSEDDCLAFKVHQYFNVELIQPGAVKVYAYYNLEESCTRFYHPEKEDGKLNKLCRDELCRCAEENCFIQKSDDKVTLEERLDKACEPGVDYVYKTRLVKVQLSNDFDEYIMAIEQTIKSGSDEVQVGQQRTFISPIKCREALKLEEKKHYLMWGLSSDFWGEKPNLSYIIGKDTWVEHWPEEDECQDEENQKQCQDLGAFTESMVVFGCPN

The IC50 is the concentration at which inhibition is half-maximal. Consider `CC[C@H](C)[C@H](NC(=O)[C@H](C)NC(=O)[C@H](CO)NC(=O)CNC(C)=O)C(=O)N[C@H]1CSSC[C@@H](C(=O)N(C)CC(=O)N[C@@H](CCC(=O)O)C(N)=O)NC(=O)[C@H](CCCNC(=N)N)NC(=O)[C@H](Cc2c[nH]cn2)NC(=O)[C@H](CCC(=O)O)NC(=O)CNC(=O)[C@H](Cc2c[nH]c3ccccc23)NC(=O)[C@H](CC(=O)O)NC(=O)[C@H](CCC(N)=O)NC(=O)[C@H](Cc2c[nH]c3ccccc23)NC(=O)[C@H]([C@@H](C)CC)NC1=O` [Compound 40] (Ac-GSAICIWQDWGEHRC[Sar]E-NH2; disulfide 5-15), for which, in data set [1], the IC50 was less than 250 nM. In data set [2] (10 mg/mL compound in 100 mM acetate pH 4), the “Solubility, Condition 1 Acetate pH 4” value is reported as “− (denotes lack of solubility at the given condition, as UV absorbance at 340 nm exceeds 0.1 AU and/or it is visibly turbid or contains particles.)”. For the same molecule, the “Solubility, Condition 2 Acetate pH 5” value in data set [2] (10 mg/mL compound in 100 mM acetate pH 5) is listed as “− (denotes lack of solubility at the given condition, as UV absorbance at 340 nm exceeds 0.1 AU and/or it is visibly turbid or contains particles.)”. Besides, the “Solubility, Condition 3 Phosphate pH 6” value in data set [2] (10 mg/mL compound in 100 mM phosphate pH 6) was “+ (denotes solubility at the given condition, as determined by UV absorbance being less than 0.1 AU at 340 nm and the sample being clear when manually inspected.)”. Also, the “Solubility, Condition 4 Phosphate pH 7” value in data set [2] (10 mg/mL compound in 100 mM phosphate pH 7) is “+ (denotes solubility at the given condition, as determined by UV absorbance being less than 0.1 AU at 340 nm and the sample being clear when manually inspected.)”. For the same molecule, the “Solubility, Condition 5 Phosphate pH 7.5” value in data set [2] (10 mg/mL compound in 100 mM phosphate pH 7.5) was “+ (denotes solubility at the given condition, as determined by UV absorbance being less than 0.1 AU at 340 nm and the sample being clear when manually inspected.)”.
In the case of {15‑Carboxy‑pentadecanoyl}-ESSAICIWQDWGEHRCTEGE-NH2 (disulfide 6-16) [Compound 99], the “IC50[nM], inhibition of hemolysis” value in data set [3] was less than 250 nM.

B1: Compound 94 (peptide)
peptide: Ac-ICIWQDWGEHRCTEGEK([AEEA-AEEA-γGlu-C16 diacid])-NH2
modifications: disulfide 2-12
SMILES: CC[C@H](C)[C@H](NC(C)=O)C(=O)N[C@H]1CSSC[C@@H](C(=O)N[C@H](C(=O)N[C@@H](CCC(=O)O)C(=O)NCC(=O)N[C@@H](CCC(=O)O)C(=O)N[C@@H](CCCCNC(=O)COCCOCCNC(=O)COCCOCCNC(=O)CC[C@H](NC(=O)CCCCCCCCCCCCCCC(=O)O)C(=O)O)C(N)=O)[C@@H](C)O)NC(=O)[C@H](CCCNC(=N)N)NC(=O)[C@H](Cc2c[nH]cn2)NC(=O)[C@H](CCC(=O)O)NC(=O)CNC(=O)[C@H](Cc2c[nH]c3ccccc23)NC(=O)[C@H](CC(=O)O)NC(=O)[C@H](CCC(N)=O)NC(=O)[C@H](Cc2c[nH]c3ccccc23)NC(=O)[C@H]([C@@H](C)CC)NC1=O
Turning to B1, the “IC50[nM], inhibition of hemolysis” value in data set [3] is less than 500 nM.

B2: Compound 101 (peptide)
peptide: Ac-EGSAICIWQDWGEHRCTEGK([γGlu-C16 diacid])-NH2
modifications: disulfide 6-16
SMILES: CC[C@H](C)[C@H](NC(=O)[C@H](C)NC(=O)[C@H](CO)NC(=O)CNC(=O)[C@H](CCC(=O)O)NC(C)=O)C(=O)N[C@H]1CSSC[C@@H](C(=O)N[C@H](C(=O)N[C@@H](CCC(=O)O)C(=O)NCC(=O)N[C@@H](CCCCNC(=O)CC[C@H](NC(=O)CCCCCCCCCCCCCCC(=O)O)C(=O)O)C(N)=O)[C@@H](C)O)NC(=O)[C@H](CCCNC(=N)N)NC(=O)[C@H](Cc2c[nH]cn2)NC(=O)[C@H](CCC(=O)O)NC(=O)CNC(=O)[C@H](Cc2c[nH]c3ccccc23)NC(=O)[C@H](CC(=O)O)NC(=O)[C@H](CCC(N)=O)NC(=O)[C@H](Cc2c[nH]c3ccccc23)NC(=O)[C@H]([C@@H](C)CC)NC1=O
Take B2: the “IC50[nM], inhibition of hemolysis” value in data set [3] was less than 500 nM.

B3: Compound 98 (peptide)
peptide: Ac-ICIWQDWGEHRCTEGK([AEEA-AEEA-γGlu-C20 diacid])-NH2
modifications: disulfide 2-12
SMILES: CC[C@H](C)[C@H](NC(C)=O)C(=O)N[C@H]1CSSC[C@@H](C(=O)N[C@H](C(=O)N[C@@H](CCC(=O)O)C(=O)NCC(=O)N[C@@H](CCCCNC(=O)COCCOCCNC(=O)COCCOCCNC(=O)CC[C@H](NC(=O)CCCCCCCCCCCCCCCCCCC(=O)O)C(=O)O)C(N)=O)[C@@H](C)O)NC(=O)[C@H](CCCNC(=N)N)NC(=O)[C@H](Cc2c[nH]cn2)NC(=O)[C@H](CCC(=O)O)NC(=O)CNC(=O)[C@H](Cc2c[nH]c3ccccc23)NC(=O)[C@H](CC(=O)O)NC(=O)[C@H](CCC(N)=O)NC(=O)[C@H](Cc2c[nH]c3ccccc23)NC(=O)[C@H]([C@@H](C)CC)NC1=O
For B3, the “IC50[nM], inhibition of hemolysis” value in data set [3] was less than 500 nM.

B4: Compound 95 (peptide)
peptide: ICIWQDWGEHRCTEGK
modifications: N-acetyl; C-terminal amide; disulfide C2-C12; K16 side chain bears (15-carboxy-pentadecanoyl)-[(Piperazine-1-yl)-acetyl][Peg3][Peg3]
As to B4, in data set [3], the “IC50[nM], inhibition of hemolysis” value is less than 500 nM.

B5: Compound 97 (peptide)
peptide: Ac-ICIWQDWGEHRCTEGEK([AEEA-AEEA-γGlu-C18 diacid])-NH2
modifications: disulfide 2-12
SMILES: CC[C@H](C)[C@H](NC(C)=O)C(=O)N[C@H]1CSSC[C@@H](C(=O)N[C@H](C(=O)N[C@@H](CCC(=O)O)C(=O)NCC(=O)N[C@@H](CCC(=O)O)C(=O)N[C@@H](CCCCNC(=O)COCCOCCNC(=O)COCCOCCNC(=O)CC[C@H](NC(=O)CCCCCCCCCCCCCCCCC(=O)O)C(=O)O)C(N)=O)[C@@H](C)O)NC(=O)[C@H](CCCNC(=N)N)NC(=O)[C@H](Cc2c[nH]cn2)NC(=O)[C@H](CCC(=O)O)NC(=O)CNC(=O)[C@H](Cc2c[nH]c3ccccc23)NC(=O)[C@H](CC(=O)O)NC(=O)[C@H](CCC(N)=O)NC(=O)[C@H](Cc2c[nH]c3ccccc23)NC(=O)[C@H]([C@@H](C)CC)NC1=O
On to B5, for which, in data set [3], the “IC50[nM], inhibition of hemolysis” value was less than 250 nM.

B6: Compound 4 (peptide)
peptide: Ac-ICI[Trp(1-Me)]QDWGEHRCT-NH2
modifications: disulfide 2-12
SMILES: CC[C@H](C)[C@H](NC(C)=O)C(=O)N[C@H]1CSSC[C@@H](C(=O)N[C@H](C(N)=O)[C@@H](C)O)NC(=O)[C@H](CCCNC(=N)N)NC(=O)[C@H](Cc2c[nH]cn2)NC(=O)[C@H](CCC(=O)O)NC(=O)CNC(=O)[C@H](Cc2c[nH]c3ccccc23)NC(=O)[C@H](CC(=O)O)NC(=O)[C@H](CCC(N)=O)NC(=O)[C@H](Cc2cn(C)c3ccccc23)NC(=O)[C@H]([C@@H](C)CC)NC1=O
B6: in data set [3], the “IC50[nM], inhibition of hemolysis” value is less than 100 nM.

B7: Compound 96 (peptide)
peptide: Ac-ICIWQDWGEHRCTEGK([AEEA-AEEA-γGlu-C18 diacid])-NH2
modifications: disulfide 2-12
SMILES: CC[C@H](C)[C@H](NC(C)=O)C(=O)N[C@H]1CSSC[C@@H](C(=O)N[C@H](C(=O)N[C@@H](CCC(=O)O)C(=O)NCC(=O)N[C@@H](CCCCNC(=O)COCCOCCNC(=O)COCCOCCNC(=O)CC[C@H](NC(=O)CCCCCCCCCCCCCCCCC(=O)O)C(=O)O)C(N)=O)[C@@H](C)O)NC(=O)[C@H](CCCNC(=N)N)NC(=O)[C@H](Cc2c[nH]cn2)NC(=O)[C@H](CCC(=O)O)NC(=O)CNC(=O)[C@H](Cc2c[nH]c3ccccc23)NC(=O)[C@H](CC(=O)O)NC(=O)[C@H](CCC(N)=O)NC(=O)[C@H](Cc2c[nH]c3ccccc23)NC(=O)[C@H]([C@@H](C)CC)NC1=O
Consider B7, for which, in data set [3], the “IC50[nM], inhibition of hemolysis” value was less than 1000 nM.

Values taken from patent publication US20220306695A1, “COMPSTATIN ANALOGUES AND THEIR MEDICAL USES” (priority 2019, published 2022).
